Source: publication PMC9482650, “Quantitative fragmentomics allow affinity mapping of interactomes” (Nature Communications, 2022)

T1: RHPN1, Q8TCX5
T1 sequence (Q8TCX5 508-602, limits assumed, looked up): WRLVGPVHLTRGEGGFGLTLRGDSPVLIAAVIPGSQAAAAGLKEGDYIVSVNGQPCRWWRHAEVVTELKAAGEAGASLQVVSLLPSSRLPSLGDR

T2: NHERF3_4, Q5T2W1
T2 sequence (Q5T2W1 373-468, limits assumed, looked up): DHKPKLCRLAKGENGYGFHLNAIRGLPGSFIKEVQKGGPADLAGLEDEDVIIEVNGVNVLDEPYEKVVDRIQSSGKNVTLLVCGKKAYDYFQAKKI

T3: GRIP1_7, Q9Y3R0
T3 sequence (Q9Y3R0 999-1096, limits assumed, looked up): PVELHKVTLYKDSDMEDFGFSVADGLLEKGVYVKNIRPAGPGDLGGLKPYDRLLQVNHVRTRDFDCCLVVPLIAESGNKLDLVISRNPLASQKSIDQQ

T4: MPDZ_5, O75970
T4 sequence (O75970 695-796, limits assumed, looked up): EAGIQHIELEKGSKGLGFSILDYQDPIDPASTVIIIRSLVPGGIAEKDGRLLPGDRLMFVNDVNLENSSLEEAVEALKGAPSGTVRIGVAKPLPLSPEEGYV

T5: MPP7, Q5T2T1
T5 sequence (Q5T2T1 134-230, limits assumed, looked up): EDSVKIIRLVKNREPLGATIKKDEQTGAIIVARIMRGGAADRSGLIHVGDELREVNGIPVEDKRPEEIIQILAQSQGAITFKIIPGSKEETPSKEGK

T6: TX1BP3, O14907
T6 sequence (O14907 10-122, limits assumed, looked up): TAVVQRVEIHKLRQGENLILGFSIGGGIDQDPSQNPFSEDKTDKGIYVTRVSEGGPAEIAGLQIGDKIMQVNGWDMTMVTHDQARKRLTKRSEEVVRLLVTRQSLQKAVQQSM

T7: PCLO, Q9Y6V0
T7 sequence (Q9Y6V0 4491-4600, limits assumed, looked up): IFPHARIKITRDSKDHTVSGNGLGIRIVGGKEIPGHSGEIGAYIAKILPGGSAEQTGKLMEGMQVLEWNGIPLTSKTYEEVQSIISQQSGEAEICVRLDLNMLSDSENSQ

T8: LRRC7, Q96NW7
T8 sequence (Q96NW7 1440-1537, limits assumed, looked up): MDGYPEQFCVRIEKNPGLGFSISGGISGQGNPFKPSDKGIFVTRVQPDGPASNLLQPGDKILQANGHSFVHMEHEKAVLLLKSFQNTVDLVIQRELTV

T9: GRIP1_3, Q9Y3R0
T9 sequence (Q9Y3R0 247-346, limits assumed, looked up): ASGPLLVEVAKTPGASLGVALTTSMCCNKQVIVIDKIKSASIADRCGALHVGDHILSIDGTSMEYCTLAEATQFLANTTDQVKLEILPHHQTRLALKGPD

T10: SYNJ2BP, P57105
T10 sequence (P57105 8-110, limits assumed, looked up): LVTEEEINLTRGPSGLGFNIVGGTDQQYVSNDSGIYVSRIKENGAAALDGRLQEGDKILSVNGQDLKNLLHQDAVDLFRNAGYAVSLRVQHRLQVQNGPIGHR

T11: NHERF3_3, Q5T2W1
T11 sequence (Q5T2W1 238-333, limits assumed, looked up): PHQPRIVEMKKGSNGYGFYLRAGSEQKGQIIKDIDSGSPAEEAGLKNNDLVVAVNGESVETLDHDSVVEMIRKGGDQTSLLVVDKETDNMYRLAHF

T12: SNTA1, Q13424
T12 sequence (Q13424 82-180, limits assumed, looked up): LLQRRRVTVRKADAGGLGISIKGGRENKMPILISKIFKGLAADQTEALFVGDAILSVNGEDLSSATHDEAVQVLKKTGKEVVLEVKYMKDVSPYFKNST

B1: CLDN1, O95832 (peptide)
chain: PAPSSGKDYV
B2: TRPV3, Q8NET8 (peptide)
chain: EVEEFPETSV

Target: T1, RHPN1, Q8TCX5
Assay: holdup assay
Parameters: key: below the threshold = too weak to quantify, mostly under pKd 3.1 to 4
Conditions: plain residues with an end cap or a label only (N-terminal biotin on a linker: ado-ado)

Row | Binder | pKd
1 | B1 | below the threshold
2 | B2 | 4.68

Target: MAGI2_3, Q86UL8
Assay: holdup assay
Parameters: key: below the threshold = too weak to quantify, mostly under pKd 3.1 to 4
Conditions: plain residues with an end cap or a label only (N-terminal biotin on a linker: ado-ado)

Sequence of MAGI2_3, Q86UL8 (Q86UL8 600-682): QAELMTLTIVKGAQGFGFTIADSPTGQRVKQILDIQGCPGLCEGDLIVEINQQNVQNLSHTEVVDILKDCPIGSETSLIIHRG

Row | Binder | pKd
3 | B1 | below the threshold
4 | B2 | 4.06

Target: PDZRN4_1, Q6ZMN7
Assay: holdup assay
Parameters: key: below the threshold = too weak to quantify, mostly under pKd 3.1 to 4
Conditions: plain residues with an end cap or a label only (N-terminal biotin on a linker: ado-ado)

Sequence of PDZRN4_1, Q6ZMN7 (Q6ZMN7 213-318): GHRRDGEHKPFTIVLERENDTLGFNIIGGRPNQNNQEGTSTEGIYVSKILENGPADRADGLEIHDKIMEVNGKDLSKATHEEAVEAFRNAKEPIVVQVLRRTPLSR

Row | Binder | pKd
5 | B1 | below the threshold
6 | B2 | 4.98

Target: T2, NHERF3_4, Q5T2W1
Assay: holdup assay
Parameters: key: below the threshold = too weak to quantify, mostly under pKd 3.1 to 4
Conditions: plain residues with an end cap or a label only (N-terminal biotin on a linker: ado-ado)

Row | Binder | pKd
7 | B1 | below the threshold
8 | B2 | below the threshold

Target: DLG2_2, Q15700
Assay: holdup assay
Parameters: key: below the threshold = too weak to quantify, mostly under pKd 3.1 to 4
Conditions: plain residues with an end cap or a label only (N-terminal biotin on a linker: ado-ado)

Row | Binder | pKd
9 | B1 | below the threshold
10 | B2 | 4.2

Target: T3, GRIP1_7, Q9Y3R0
Assay: holdup assay
Parameters: key: below the threshold = too weak to quantify, mostly under pKd 3.1 to 4
Conditions: plain residues with an end cap or a label only (N-terminal biotin on a linker: ado-ado)

Row | Binder | pKd
11 | B1 | 3.87
12 | B2 | 3.48

Target: T4, MPDZ_5, O75970
Assay: holdup assay
Parameters: key: below the threshold = too weak to quantify, mostly under pKd 3.1 to 4
Conditions: plain residues with an end cap or a label only (N-terminal biotin on a linker: ado-ado)

Row | Binder | pKd
13 | B1 | below the threshold
14 | B2 | 3.56

Target: DLG5_1, Q8TDM6
Assay: holdup assay
Parameters: key: below the threshold = too weak to quantify, mostly under pKd 3.1 to 4
Conditions: plain residues with an end cap or a label only (N-terminal biotin on a linker: ado-ado)

Sequence of DLG5_1, Q8TDM6 (Q8TDM6 617-713): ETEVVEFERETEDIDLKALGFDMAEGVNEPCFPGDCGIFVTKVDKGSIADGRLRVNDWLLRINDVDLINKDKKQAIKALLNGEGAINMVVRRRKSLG

Row | Binder | pKd
15 | B1 | below the threshold
16 | B2 | 3.7

Target: Inadl_5, Q8NI35
Assay: holdup assay
Parameters: key: below the threshold = too weak to quantify, mostly under pKd 3.1 to 4
Conditions: plain residues with an end cap or a label only (N-terminal biotin on a linker: ado-ado)

Sequence of Inadl_5, Q8NI35 (Q8NI35 673-780): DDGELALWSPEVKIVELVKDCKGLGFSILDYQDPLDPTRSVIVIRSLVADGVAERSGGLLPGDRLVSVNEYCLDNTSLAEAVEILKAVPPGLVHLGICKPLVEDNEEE

Row | Binder | pKd
17 | B1 | below the threshold
18 | B2 | 3.56

Target: LIMK2, P53671
Assay: holdup assay
Parameters: key: below the threshold = too weak to quantify, mostly under pKd 3.1 to 4
Conditions: plain residues with an end cap or a label only (N-terminal biotin on a linker: ado-ado)

Sequence of LIMK2, P53671 (P53671 143-248): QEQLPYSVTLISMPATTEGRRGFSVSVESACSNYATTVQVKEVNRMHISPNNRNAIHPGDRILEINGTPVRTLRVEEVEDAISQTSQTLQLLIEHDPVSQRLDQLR

Row | Binder | pKd
19 | B1 | below the threshold
20 | B2 | below the threshold

Target: MAST1, Q9Y2H9
Assay: holdup assay
Parameters: key: below the threshold = too weak to quantify, mostly under pKd 3.1 to 4
Conditions: plain residues with an end cap or a label only (N-terminal biotin on a linker: ado-ado)

Sequence of MAST1, Q9Y2H9 (Q9Y2H9 962-1065): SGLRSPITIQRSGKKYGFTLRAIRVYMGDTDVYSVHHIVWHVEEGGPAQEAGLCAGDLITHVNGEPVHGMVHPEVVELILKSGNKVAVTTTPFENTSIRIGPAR

Row | Binder | pKd
21 | B1 | 3.51
22 | B2 | 4.21

Target: MAGI2_4, Q86UL8
Assay: holdup assay
Parameters: key: below the threshold = too weak to quantify, mostly under pKd 3.1 to 4
Conditions: plain residues with an end cap or a label only (N-terminal biotin on a linker: ado-ado)

Sequence of MAGI2_4, Q86UL8 (Q86UL8 772-865): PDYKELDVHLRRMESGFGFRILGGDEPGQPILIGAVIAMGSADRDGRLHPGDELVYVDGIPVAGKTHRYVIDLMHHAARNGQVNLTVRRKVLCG

Row | Binder | pKd
23 | B1 | 3.54
24 | B2 | 3.68

Target: GRID2IP_2, A4D2P6
Assay: holdup assay
Parameters: key: below the threshold = too weak to quantify, mostly under pKd 3.1 to 4
Conditions: plain residues with an end cap or a label only (N-terminal biotin on a linker: ado-ado)

Sequence of GRID2IP_2, A4D2P6 (A4D2P6 272-370): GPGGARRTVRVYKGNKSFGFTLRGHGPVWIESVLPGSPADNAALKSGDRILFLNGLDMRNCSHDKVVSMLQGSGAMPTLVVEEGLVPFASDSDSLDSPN

Row | Binder | pKd
25 | B1 | below the threshold
26 | B2 | 4.39

Target: DLG1_2, Q12959
Assay: holdup assay
Parameters: key: below the threshold = too weak to quantify, mostly under pKd 3.1 to 4
Conditions: plain residues with an end cap or a label only (N-terminal biotin on a linker: ado-ado)

Sequence of DLG1_2, Q12959 (Q12959 314-412): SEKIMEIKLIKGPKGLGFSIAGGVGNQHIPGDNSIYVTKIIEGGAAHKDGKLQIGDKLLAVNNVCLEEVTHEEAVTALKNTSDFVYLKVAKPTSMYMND

Row | Binder | pKd
27 | B1 | below the threshold
28 | B2 | 4.51

Target: T5, MPP7, Q5T2T1
Assay: holdup assay
Parameters: key: below the threshold = too weak to quantify, mostly under pKd 3.1 to 4
Conditions: plain residues with an end cap or a label only (N-terminal biotin on a linker: ado-ado)

Row | Binder | pKd
29 | B1 | below the threshold
30 | B2 | 3.57

Target: T6, TX1BP3, O14907
Assay: holdup assay
Parameters: key: below the threshold = too weak to quantify, mostly under pKd 3.1 to 4
Conditions: plain residues with an end cap or a label only (N-terminal biotin on a linker: ado-ado)

Row | Binder | pKd
31 | B1 | below the threshold
32 | B2 | 4.8

Target: T7, PCLO, Q9Y6V0
Assay: holdup assay
Parameters: key: below the threshold = too weak to quantify, mostly under pKd 3.1 to 4
Conditions: plain residues with an end cap or a label only (N-terminal biotin on a linker: ado-ado)

Row | Binder | pKd
33 | B1 | below the threshold
34 | B2 | below the threshold

Target: HTRA1, Q92743
Assay: holdup assay
Parameters: key: below the threshold = too weak to quantify, mostly under pKd 3.1 to 4
Conditions: plain residues with an end cap or a label only (N-terminal biotin on a linker: ado-ado)

Sequence of HTRA1, Q92743 (Q92743 360-477): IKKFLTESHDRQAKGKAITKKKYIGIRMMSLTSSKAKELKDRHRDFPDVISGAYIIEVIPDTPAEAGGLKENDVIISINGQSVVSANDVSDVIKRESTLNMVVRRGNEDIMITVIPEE

Row | Binder | pKd
35 | B1 | 3.94
36 | B2 | 4.16

Target: T8, LRRC7, Q96NW7
Assay: holdup assay
Parameters: key: below the threshold = too weak to quantify, mostly under pKd 3.1 to 4
Conditions: plain residues with an end cap or a label only (N-terminal biotin on a linker: ado-ado)

Row | Binder | pKd
37 | B1 | below the threshold
38 | B2 | 4.08

Target: DLG2_3, Q15700
Assay: holdup assay
Parameters: key: below the threshold = too weak to quantify, mostly under pKd 3.1 to 4
Conditions: plain residues with an end cap or a label only (N-terminal biotin on a linker: ado-ado)

Row | Binder | pKd
39 | B1 | below the threshold
40 | B2 | 4.41

Target: T9, GRIP1_3, Q9Y3R0
Assay: holdup assay
Parameters: key: below the threshold = too weak to quantify, mostly under pKd 3.1 to 4
Conditions: plain residues with an end cap or a label only (N-terminal biotin on a linker: ado-ado)

Row | Binder | pKd
41 | B1 | below the threshold
42 | B2 | 3.49

Target: T10, SYNJ2BP, P57105
Assay: holdup assay
Parameters: key: below the threshold = too weak to quantify, mostly under pKd 3.1 to 4
Conditions: plain residues with an end cap or a label only (N-terminal biotin on a linker: ado-ado)

Row | Binder | pKd
43 | B1 | below the threshold
44 | B2 | 5.2

Target: T11, NHERF3_3, Q5T2W1
Assay: holdup assay
Parameters: key: below the threshold = too weak to quantify, mostly under pKd 3.1 to 4
Conditions: plain residues with an end cap or a label only (N-terminal biotin on a linker: ado-ado)

Row | Binder | pKd
45 | B1 | below the threshold
46 | B2 | below the threshold

Target: T12, SNTA1, Q13424
Assay: holdup assay
Parameters: key: below the threshold = too weak to quantify, mostly under pKd 3.1 to 4
Conditions: plain residues with an end cap or a label only (N-terminal biotin on a linker: ado-ado)

Row | Binder | pKd
47 | B1 | below the threshold
48 | B2 | 5.22

Target: GRIP2_7, Q9C0E4
Assay: holdup assay
Parameters: key: below the threshold = too weak to quantify, mostly under pKd 3.1 to 4
Conditions: plain residues with an end cap or a label only (N-terminal biotin on a linker: ado-ado)

Sequence of GRIP2_7, Q9C0E4 (Q9C0E4 934-1023): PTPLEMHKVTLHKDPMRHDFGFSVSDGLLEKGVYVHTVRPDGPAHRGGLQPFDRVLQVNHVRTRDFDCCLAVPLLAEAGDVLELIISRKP

Row | Binder | pKd
49 | B1 | 3.63
50 | B2 | 3.58
